B1: TPR t1 (parent)
chain: GACCAAUCUGCCCUCAGAGCUCGAGAACAUCUUCGGAUGCAGAGGAGGCAGGCUUCGGUGGCGCGAUAGCGCCAACGUCCUCAACCUCCAAUGCAUCCCACCACAUGAUGAUGCCUGAAGAGCCUUGGUUUUUUG

Variants of: B1
Assay: polymerase ribozyme fitness, log enrichment relative to wild type (log ratio); higher = more active; in vitro selection for triplet polymerase activity
Outline: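 Input and output libraries were sequenced on Illumina after a single in vitro selection round, run in triplicate on PCR-built, transcribed mutant libraries of each subunit of a heterodimeric triplet polymerase ribozyme. Selection annealed libraries to a biotinylated primer, the partner subunit and triplets, incubated them frozen at −7 °C, then gel-excised extended constructs for streptavidin-bead capture and RT-PCR. Genotypes with ≥10 input reads and ≥1 read per output were kept. Fitness is the logarithm, taken in base 2, of genotype enrichment divided by wild-type enrichment, using inverse-variance-weighted replicate averages.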

Variant | polymerase ribozyme fitness (log ratio)
C73G C104A | -1.94
U78G G113A | -1.05
U78G G113U | -3.89
U78A G117A | -1.76
C72U U87G C89U C123A | 0.156
C79G C101A G135U | -4.68
C73A C99U A119U U130A | -4.24
G77C C88A | -0.0409
U78A C123U | 1.1
G77A C82A G110A C123A | -2.98
C79G C85G | -3.02
C79G C85A | -3.62
C73A C88G A111U U129G | -5.91
U78A C124G | 1.42
U78G C114U | -2.96
G77A U96G | -1.12
C73U C76G U112G | -1.81
C76U G113U | -2.36
A75U C82G U96A C115G | -3.29
U78C G113A | -1.36
C73U U96G G117A | -2.78
C73A C104U U130G U132C | 1.03
U78G C114U U129G | -4.71
C72U C115U U129G | -2.18

Variant | polymerase ribozyme fitness (log ratio)
A74U G93A | -0.498
C79G U87G U92C G120U | -4.54
G77U C89U A91U U116C G120C G135A | -2.85
C79G C114A | -0.594
G77U C124G | 1.96
C73G G113A | -1.29
C72U U96A | -1.65
U78G C89A G117A | -4.25
C73U U87C C89G G120A | -1.46
U78C C88G | -0.636
C73G A103C | -4.89
U78G U96A C124G | 1.43
C73U C124U | 1.94
C73A G113C | -2.27
C79A G113C | -3.64
C73A A91U | -0.926
C73A A91G | -0.975
C73U G117A G128C | -5.18
C73G C102A | -2.76
C79U U106A U116C U126C | -1.17
C72U G120A C124U | 1.83
U78A G107C | -6.06
G77A A83U U87C C104U A105C | -5.02
A75G G113C | -2.4

Variant | polymerase ribozyme fitness (log ratio)
C73G A83U C88G U130A | -3.2
U78G A84U C115U A121C | -3.92
A74C C82A A105U | -2.29
C73U G110A | -0.705
U78G G107U | -5.32
C79A A95G C101U C123U | -4.17
A74C C101U U132C | -0.834
C72U U78G U109C | -5.41
A74G C102G U132C | -5.92
C73G C124A | 1.65
C73U U125A | -0.171
U78C C85G | -1.82
G77U U131A | -0.157
C73U U132C | -0.238
U78C U130C | 0.0983
C73G G120A | -0.212
C76U C79A G120C | 0.319
U78A C115G U116G | -3.11
U78G G110U G127U | -2.47
C73A C86U | 1.13
C76A G93C C94A U112G | -4.68
C73U G127U | -0.489
C73U G127C | -0.681
U78C U106A | 0.00582

Variant | polymerase ribozyme fitness (log ratio)
C79U C94U C98U | -1.64
U78C C88U A121C | 1.67
C73A U78C C94U | -0.492
C73U U106A | -0.212
U78G A91C U92G | -3.13
C73U C115U | -0.667
G77A U78C C115G | -2.5
G77C U125C | -3.91
C73A U129C | -0.459
C73U A74G C99U | -3.36
C79A G107A G117U | -6.98
A74U A83G C99U A100U G120U | -6.6
A75G C82U A121G C124G | 1.16
U78C A118U | 0.929
U78G C80U | -0.927
C73U C104U C115A | 0.332
U78A C79A A95C U133A | -4.23
U78C C86A | -0.372
C73U A75G G77A U109G | -6.15
C79A C88U C101U | -0.735
C72U G77U | -0.309
C73A A84U C88A G110A C123A U126C | -4.76
U78G G113A C124G | -0.667
C79A C101U | -1.4

Variant | polymerase ribozyme fitness (log ratio)
A75G C88G | -1.04
A74U A121U C124A | 1.47
C73U A84U G110U | -1.67
C73A U106G G110C | -4.6
C72U G110U | -1.17
C72U G110A | -1.45
G77U A119G | -0.758
C76G C82G G128U | -3.7
C79U G122U | 0.0245
G77A U109A | -5.95
C72U U133G | -0.942
C73A C82U | -0.0503
G77U C114G A121C | -1.7
C76A A121U U125G | 0.374
C72U G120A | 0.502
C72U G120C | 0.644
A74U C101U G113A C123G | -1.64
U78C C80G A121G | -2.75
A74U C104A C124G | 0.0488
C73G G120A U129G | -1.1
G77A C104A G128A | -3.06
C73G U116C U131A | -1.53
U78C C94G A108G C114G U130G | -5.42
C73G C101U | -0.446

Variant | polymerase ribozyme fitness (log ratio)
G77U A91U U133C | -1.24
C72U G120C U131G | 0.516
A75U C99U | -3.69
A75G C80A G128U U133C G135C | -4.6
A74U C88G U112G U132G G135A | -0.922
A74C G113U C115U G117A C123A | -6.47
C73G A90G C104U U112C A121U U130C | 1.89
C79U G93A C102A | -2.33
G77U U132A | -0.53
A74G G77U C123U | 0.945
G77A A83C C94U C115G U116C U125G | -4.83
C72U U87A | -0.188
C73U C101G G120U | -0.999
G77U C101G G127A | -2.44
C73U U78A C88G G120U | -1.15
C72U C104U | -0.541
C73G A121C | 1.42
C79U A95G A105U | -2.87
A74C C76A A121C | -1.23
U78C U109A | -5.34
C73U U126A | -1.7
C72U U129G | -1.46
C72U U109A | -5.61
C73A U87A G120C C124A U132G | -4.42

Variant | polymerase ribozyme fitness (log ratio)
C76A A91G C115A | -0.508
C76U G110C | -4.7
C76U G120A | 1.69
A75U C97A | -5.53
G77U A111U | -3.23
C72U U92A A95U | -4.07
G77C G117C | -4.29
A75G C123U | 1.55
C76U C94A U106C U112C | 0.627
C72U C101G G117U | -3.6
C73G C94A C102U | -3.82
U78G G93A G120U | -0.265
C72U C102G | -5.51
C72U C102A | -1.81
C73G C86U | -1.29
C73G C86G | -2.52
C76G C123U | 1.06
C79G U81A C98U C102G G107C | -7.84
G77U G113A | -1.38
C73A A119G | 0.838
C79A C85U | -2.34
C73G A119U U132C | -1.94
G77U C88G | -1.02
